Experimental data from paper PMC10901373, “An unusual dual sugar-binding lectin domain controls the substrate specificity of a mucin-type O-glycosyltransferase” (Science Advances, 2024).
No end group written: not given here. *: point of attachment. αGalNAc = CC(=O)N[C@@H]1[C@@H](O)[C@@H](O)[C@@H](CO)O[C@@H]1*

Columns and labels:
[1] = biological target: T1, human GalNAc-T1 D444A (α repeat variant) (human) (UniProt Q10472)
T1 sequence: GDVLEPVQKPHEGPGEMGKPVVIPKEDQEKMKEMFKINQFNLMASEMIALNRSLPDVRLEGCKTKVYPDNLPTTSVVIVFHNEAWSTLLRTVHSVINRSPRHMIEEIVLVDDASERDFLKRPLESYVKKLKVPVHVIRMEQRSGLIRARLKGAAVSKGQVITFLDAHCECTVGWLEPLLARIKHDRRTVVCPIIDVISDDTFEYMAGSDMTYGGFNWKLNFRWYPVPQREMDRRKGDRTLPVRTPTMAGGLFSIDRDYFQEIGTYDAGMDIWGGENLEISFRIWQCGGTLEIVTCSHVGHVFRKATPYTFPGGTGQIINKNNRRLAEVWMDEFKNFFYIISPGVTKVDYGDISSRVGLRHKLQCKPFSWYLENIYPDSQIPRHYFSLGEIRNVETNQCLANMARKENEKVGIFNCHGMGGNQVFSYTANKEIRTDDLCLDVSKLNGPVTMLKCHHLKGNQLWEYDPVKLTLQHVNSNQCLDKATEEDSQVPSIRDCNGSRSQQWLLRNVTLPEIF

[2] = biological target: T2, human GalNAc-T1 D484A (β repeat variant) (human) (UniProt Q10472)
T2 sequence: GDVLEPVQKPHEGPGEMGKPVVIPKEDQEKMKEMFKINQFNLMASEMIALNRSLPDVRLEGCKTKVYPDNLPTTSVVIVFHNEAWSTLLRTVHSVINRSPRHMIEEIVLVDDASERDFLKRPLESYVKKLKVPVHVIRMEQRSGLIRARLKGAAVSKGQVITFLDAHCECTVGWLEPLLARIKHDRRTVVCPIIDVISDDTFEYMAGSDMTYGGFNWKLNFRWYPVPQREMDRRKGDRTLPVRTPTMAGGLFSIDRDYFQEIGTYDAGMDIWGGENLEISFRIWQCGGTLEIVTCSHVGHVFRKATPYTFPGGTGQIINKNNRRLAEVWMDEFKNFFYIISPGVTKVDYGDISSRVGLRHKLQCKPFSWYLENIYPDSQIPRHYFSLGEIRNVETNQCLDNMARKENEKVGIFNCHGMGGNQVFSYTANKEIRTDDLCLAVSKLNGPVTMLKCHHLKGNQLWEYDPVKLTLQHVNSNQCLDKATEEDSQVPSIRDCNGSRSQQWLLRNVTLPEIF

[3] = biological target: T3, mouse GalNAc-T1 (pKN55-His6-TEV-mGalNAc-T1-∆56) (mouse, UniProt O08912 57-559); assay: crystal structure; mouse GalNAc-T1 (5 mg/ml) combined with 4 mM Muc5AC-13, 5 mM UDP and 5 mM MnCl2; hanging drops, 20% PEG-3350, 0.1 M MES pH 6.5; 2.3 Å; details: both partners purified
T3 construct: mouse polypeptide N-acetylgalactosaminyltransferase 1 (GalNAc-T1), construct printed as mGalNAc-T1-∆56 (read as lacking the first 56 residues); 98% identical to human GalNAc-T1; The construct has a TEV site after the His6 tag; The start at residue 57 is read from the name ∆56; also called N-acetylgalactosaminyl-transferase 1; source: SD200 16/60 gel filtration before crystallization
T3 sequence (looked up): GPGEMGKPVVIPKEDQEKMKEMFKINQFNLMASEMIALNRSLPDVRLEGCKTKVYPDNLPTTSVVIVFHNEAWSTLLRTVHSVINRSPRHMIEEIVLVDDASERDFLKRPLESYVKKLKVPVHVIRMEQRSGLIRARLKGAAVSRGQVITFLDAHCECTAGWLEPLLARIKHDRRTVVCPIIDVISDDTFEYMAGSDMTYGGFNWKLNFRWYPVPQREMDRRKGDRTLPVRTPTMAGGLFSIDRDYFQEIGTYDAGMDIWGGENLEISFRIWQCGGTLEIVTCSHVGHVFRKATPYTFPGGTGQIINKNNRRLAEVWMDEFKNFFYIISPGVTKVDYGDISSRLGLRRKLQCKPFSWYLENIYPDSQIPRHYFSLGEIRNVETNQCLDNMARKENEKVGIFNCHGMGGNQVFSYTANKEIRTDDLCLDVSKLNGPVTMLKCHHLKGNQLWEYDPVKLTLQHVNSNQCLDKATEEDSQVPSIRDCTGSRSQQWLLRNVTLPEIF

## GAT(αGalNAc)PAPVPAGAGTPAP [Muc5AC-A3 glycopeptide (GAT3^GalNAc…13PAP)]
[1]
  KM (UDP-Glo), fold increase compared to GalNAc-T1^WT: 10 fold
  kcat/KM (UDP-Glo), fold reduction compared to GalNAc-T1^WT: 16 fold

## GATPAPVPAGAGT(αGalNAc)PAP [Muc5AC-A13 glycopeptide (GAT3…13^GalNAcPAP)]
[2]
  KM (UDP-Glo), fold increase compared to GalNAc-T1^WT: 20 fold
  kcat/KM (UDP-Glo), fold decrease compared to GalNAc-T1^WT: 29 fold

B1: Muc5AC-13 glycopeptide (GTT3PSPVPTTSTT13^GalNAcSAP) (peptide)
peptide: GTTPSPVPTTSTT(αGalNAc)SAP
notes: Muc5AC mucin repeat peptide, 16 residues; numbers count on: the peptide; source: synthetic peptide (Anaspec)
[3]
  binding result: binds
